Assay results as given in PMC8359183, “The periplasmic domains of Vibriocholerae ToxR and ToxS are forming a strong heterodimeric complex independent on the redox state of ToxR cysteines” (Molecular Microbiology, 2021).

Columns and labels:
[1] = target: T1, periplasmic domain of Vibrio cholerae ToxS (ToxSp) (Vibrio cholerae); assay: SEC-MALS; conditions: both partners purified
T1 chain: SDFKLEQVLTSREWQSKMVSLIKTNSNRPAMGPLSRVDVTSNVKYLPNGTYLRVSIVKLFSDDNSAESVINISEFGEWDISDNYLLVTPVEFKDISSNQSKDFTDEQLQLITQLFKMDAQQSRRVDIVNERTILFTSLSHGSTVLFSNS

[2] = target: T2, ToxSp H10_S11insC labelled with 5-iodoacetamidofluorescein (Vibrio cholerae); assay: fluorescence polarisation; conditions: both partners purified
T2 construct: also called FITC ToxSp H10_S11insC
T2 chain: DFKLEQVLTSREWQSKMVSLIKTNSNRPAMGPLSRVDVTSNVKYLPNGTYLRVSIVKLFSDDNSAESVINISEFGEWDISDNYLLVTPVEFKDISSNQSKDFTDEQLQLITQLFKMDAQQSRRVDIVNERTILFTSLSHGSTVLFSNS

B1: periplasmic domain of Vibrio cholerae ToxR, oxidized, with an intramolecular disulfide bond (ToxRp-ox) (domain or fragment)
chain: PSQTSFKPLTVVDGVAVNMPNNHPDLSNWLPSIELCVKKYNEKHTGGLKPIEVIATGGQNNQLTLNYIHSPEVSGENITLRIVANPNDAIKVCE
notes: also called pToxR-ox; ToxRp-ox-V.c
[1]
  stoichiometry N: 1 ToxRp per ToxSp
[2]
  Kd: 11.6 ± 3.4 nM
